Experimental data taken from patent US20050169917A1.

molecular target: Orphanin FQ receptor, normal (NT), expressed in Cos-7 cells (UniProt P35370); assay: inhibition of [125I] Y14-OFQ17 binding, Cos-7 cells transfected with OFQR

FGGFTGAKKSARKLANQ [synthetic OFQ17 with R8K] was tested. Which IC50 did it give?
Its IC50 is 0.1 nM.

FGGFTGARKSARCLANQ [synthetic OFQ17 with K13C] was tested. Which IC50 did it give?
Its IC50 is 0.1 nM.

For FGGFTGARKSA [OFQ11], which IC50 is on record?
Its IC50 is 5000 nM.
